Assay [1] concerns the target Protein A (UniProt P38507). As to the kind of experiment: SPR; Protein A (0.25 mg/mL, 90 min) adsorbed to the gold surface of a Topas chip, blocked with 1 mg/mL BSA; 500 uL of 0.565 mg/mL IgG1 added for 90 min, rinsed with 10 mM Tris-HCl; plateaus in 10 mM Tris-HCl compared; measured together with EIS in one PDMS flow cell. For orientation: In SPR one partner is held on a chip, and binding of the other changes the refractive index at the surface.

The target in assay [2] is Protein A (UniProt P38507). As to the kind of experiment: electrochemical impedance spectroscopy (EIS); Protein A (0.25 mg/mL, 90 min) adsorbed to the gold surface of a Topas chip, blocked with 1 mg/mL BSA; 500 uL of 0.565 mg/mL IgG1 added for 90 min, rinsed with 10 mM Tris-HCl; impedance at 251 Hz, AC amplitude 10 mV; measured together with SPR in one PDMS flow cell.

Turning to immunoglobulin-G (IgG1) (antibody), in the assay with Protein A [1], the local minimum (RU) after IgG1 and the last rinse came to 460 RU; the minimum shift, normalised to the initial value is 35.3%. In the assay with Protein A [2], this substance showed an impedance at 251 Hz after IgG1 and the last rinse of 51 kΩ; an increase in impedance, normalised to the initial value of 18.6%.

Source of the values: article PMC3871058.
